Test results as given in the supplement of paper PMC9233669.
Fewer inactive variants are shown than the library holds.

How the values were obtained:
[1] = tested on: biotinyl-Val-oxazolone; assay: self-aminoacylation, catalytic enhancement (BVO) (fold over background); higher = more active; k-Seq, kA / k0A0; sequences stand for … in GGGAAUGGAUCCACAUCUACGAAUUC…UUCACUGCAGACUUGACGAAGCUG
How it was run: (§1)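 Mutagenized RNA pools (0.43 μM; 21-nt variable region) were treated with 2–1250 μM of each biotinyl-aminoacyl-oxazolone. Conditions were 50 μL HEPES/NaCl/KCl/MgCl2/CaCl2 buffer, 5% acetonitrile, pH 6.9–7.0, room temperature, 90 minutes. Catalytic enhancement, the median kA relative to the uncatalyzed rate, was derived from streptavidin capture, qPCR and Illumina sequencing.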

[2] = tested on: biotinyl-Leu-oxazolone; assay: self-aminoacylation, catalytic enhancement (BLO) (fold over background); higher = more active; k-Seq, kA / k0A0; sequences stand for … in GGGAAUGGAUCCACAUCUACGAAUUC…UUCACUGCAGACUUGACGAAGCUG
How it was run: as §1

[3] = tested on: biotinyl-Ile-oxazolone; assay: self-aminoacylation, catalytic enhancement (BIO) (fold over background); higher = more active; k-Seq, kA / k0A0; sequences stand for … in GGGAAUGGAUCCACAUCUACGAAUUC…UUCACUGCAGACUUGACGAAGCUG
How it was run: as §1

[4] = tested on: biotinyl-Met-oxazolone; assay: self-aminoacylation, catalytic enhancement (BMO) (fold over background); higher = more active; k-Seq, kA / k0A0; sequences stand for … in GGGAAUGGAUCCACAUCUACGAAUUC…UUCACUGCAGACUUGACGAAGCUG
How it was run: as §1

[5] = tested on: biotinyl-Trp-oxazolone; assay: self-aminoacylation, catalytic enhancement (BWO) (fold over background); higher = more active; k-Seq, kA / k0A0; sequences stand for … in GGGAAUGGAUCCACAUCUACGAAUUC…UUCACUGCAGACUUGACGAAGCUG
How it was run: as §1

[6] = tested on: biotinyl-Phe-oxazolone; assay: self-aminoacylation, catalytic enhancement (BFO) (fold over background); higher = more active; k-Seq, kA / k0A0; sequences stand for … in GGGAAUGGAUCCACAUCUACGAAUUC…UUCACUGCAGACUUGACGAAGCUG
How it was run: as §1

Sequence | self-aminoacylation [1] | self-aminoacylation [2] | self-aminoacylation [3] | self-aminoacylation [4] | self-aminoacylation [5] | self-aminoacylation [6]
AUCCACCUAGGUCAGCGGGUG [Fam2.2 aminoacylation ribozyme variant] | 4.02 | 5.2 | 3.68 | 3.79 | 4.43 | 31.2
AUCCACCUAGGUCAUCGGGCG [Fam2.2 aminoacylation ribozyme variant] | 3.87 | 5.85 | 4.91 | 5.3 | 3.38 | 20.9
AUCCACCUAGGUCAUCGGGUA [Fam2.2 aminoacylation ribozyme variant] | 18.1 | 53.2 | 20.2 | 39.4 | 26.5 | 275
AUCCACCUAGGUCAUCGGUUG [Fam2.2 aminoacylation ribozyme variant] | 1.52 | 1.41 | 1.31 | 1.5 | 1.84 | 5.85
AUCCACCUAGGUCAUUGGGUG [Fam2.2 aminoacylation ribozyme variant] | 3.24 | 3.86 | 3.51 | 3.76 | 3.8 | 24.6
AUCCACCUAGGUCCUCGGGUG [Fam2.2 aminoacylation ribozyme variant] | 4.71 | 6.47 | 3.76 | 6.2 | 6.83 | 31.1
AUCCACCUAGUUCAUCGGGUG [Fam2.2 aminoacylation ribozyme variant] | 3.24 | 4.83 | 2.9 | 3.53 | 4.63 | 24.1
AUCCACGUAGGUCAUCGGGUG [Fam2.2 aminoacylation ribozyme variant] | 4.96 | 4.88 | 3.4 | 4.61 | 4.86 | 37.4
AUCCACUUAGGUCAUCGGGUG [Fam2.2 aminoacylation ribozyme variant] | 4.85 | 8.6 | 5.19 | 6.88 | 7.26 | 63.8
AUCCCCCUAGGUCAUCGGGUG [Fam2.2 aminoacylation ribozyme variant] | 8.74 | 17.6 | 8.62 | 13.3 | 12.6 | 132
AUGACCCUGGUCAACGAGUGA [Fam2.1 aminoacylation ribozyme variant] | 3.52 | 6.02 | 3.48 | 5.77 | 6.86 | 32.5
AUGACCCUGGUCAUCGAGUUA [Fam2.1 aminoacylation ribozyme variant] | 2.44 | 5.29 | 2.81 | 6.25 | 3.71 | 9.13
AUGACCCUGGUCAUCGCGUGA [Fam2.1 aminoacylation ribozyme variant] | 7.53 | 17.1 | 7.46 | 16 | 19.7 | 126
AUGACUCUGGUCAUCGAGUGA [Fam2.1 aminoacylation ribozyme variant] | 2.75 | 5.16 | 2.62 | 4.86 | 5.56 | 23.2
AUGAUUGCUAAUAGUCGCAAG [Fam3.1 aminoacylation ribozyme variant] | 1.24 | 1.53 | 1.34 | 1.67 | 1.61 | 2.06
AUGCACCAAGGUCAUCGGGUG [Fam2.2 aminoacylation ribozyme variant] | 5.23 | 9.2 | 4.95 | 7.84 | 9.96 | 59.9
AUGCACCUAGAUCAUCGGGUG [Fam2.2 aminoacylation ribozyme variant] | 2.69 | 2.64 | 2.13 | 2.41 | 3.8 | 10.6
AUGCACCUAGGACAUCGGGUG [Fam2.2 aminoacylation ribozyme variant] | 2.54 | 4.43 | 3.37 | 3.57 | 5.58 | 19.4
AUGCACCUAGGGCAUCGGGUG [Fam2.2 aminoacylation ribozyme variant] | 3.46 | 3.16 | 2.89 | 3.04 | 4.75 | 30.6
AUGCACCUAGGUCAUCGAGUG [Fam2.2 aminoacylation ribozyme variant] | 2.56 | 3.96 | 2.61 | 3.33 | 3.75 | 4.83
AUGCACCUAGGUCAUCGGGAG [Fam2.2 aminoacylation ribozyme variant] | 1.51 | 1.54 | 1.56 | 1.39 | 1.94 | 1.08
AUGCACCUAGGUCAUCGGUUG [Fam2.2 aminoacylation ribozyme variant] | 1.24 | 1.28 | 1.42 | 1.26 | 1.48 | 5.04
AUGCACCUAGGUCAUCGUGUG [Fam2.2 aminoacylation ribozyme variant] | 1.04 | 0.934 | 1.04 | 1.18 | 0.926 | 4.56
AUGCACCUAGGUCCUCGGGUG [Fam2.2 aminoacylation ribozyme variant] | 3.19 | 5.43 | 3.44 | 3.7 | 5.64 | 27.2
AUGCACCUAGGUCGUCGGGUG [Fam2.2 aminoacylation ribozyme variant] | 1.8 | 2.42 | 1.68 | 1.75 | 2.39 | 8.26
AUGCACCUAUGUCAUCGGGUG [Fam2.2 aminoacylation ribozyme variant] | 2.48 | 5.19 | 2.81 | 4.11 | 4.24 | 26.4

Sequence | self-aminoacylation [1] | self-aminoacylation [2] | self-aminoacylation [3] | self-aminoacylation [4] | self-aminoacylation [5] | self-aminoacylation [6]
AUGCACCUCGGUCAUCGGGUG [Fam2.2 aminoacylation ribozyme variant] | 3.86 | 6.47 | 4.1 | 5.38 | 6.81 | 32.6
AUGCACCUGGGUCAUCGGGUG [Fam2.2 aminoacylation ribozyme variant] | 3.8 | 3.18 | 3.37 | 4.33 | 3.63 | 21.2
AUGCAUCUAGGUCAUCGGGUG [Fam2.2 aminoacylation ribozyme variant] | 5.41 | 9.38 | 5.83 | 8.33 | 9.62 | 57
AUGCCCCUGGUCAUCGAGUGA [Fam2.1 aminoacylation ribozyme variant] | 5.59 | 10.2 | 5.14 | 9.73 | 10 | 38.4
AUGCUCCUAGGUCAUCGGGUG [Fam2.2 aminoacylation ribozyme variant] | 4.4 | 8.92 | 5.26 | 7.47 | 7.13 | 37.6
AUGCUUCAAACAAUCGGUCUG [Fam1A.1 aminoacylation ribozyme variant] | 1.99 | 3.36 | 2.25 | 2.1 | 50.6 | 129
AUGGACCUAGGUCAUCGGGUG [Fam2.2 aminoacylation ribozyme variant] | 3.04 | 4.55 | 3.46 | 3.77 | 4.36 | 22
AUGGCCCUGGUCAUCGAGUGA [Fam2.1 aminoacylation ribozyme variant] | 29.1 | 84.6 | 27.1 | 82.9 | 76.5 | 729
AUGUACCUAGGUCAUCGGGUG [Fam2.2 aminoacylation ribozyme variant] | 3.08 | 5.37 | 3.62 | 5.49 | 5.8 | 34
AUGUCCCUGGUCAUCGAGUGA [Fam2.1 aminoacylation ribozyme variant] | 17.2 | 40.9 | 15.1 | 44.2 | 41.4 | 246
AUGUCUGCUAAUAGUCGCAAG [Fam3.1 aminoacylation ribozyme variant] | 1.56 | 1.74 | 1.91 | 2.25 | 9.53 | 35.5
AUGUUAGCUAAUAGUCGCAAG [Fam3.1 aminoacylation ribozyme variant] | 1.29 | 1.39 | 1.57 | 1.45 | 0.993 | 1.84
AUGUUCGCUAAUAGUCGCAAG [Fam3.1 aminoacylation ribozyme variant] | 1.55 | 1.14 | 1.58 | 1.65 | 1.67 | 3.79
AUGUUUACUAAUAGUCGCAAG [Fam3.1 aminoacylation ribozyme variant] | 1.7 | 1.52 | 1.67 | 1.61 | 2.07 | 1.92
AUGUUUGCCAAUAGUCGCAAG [Fam3.1 aminoacylation ribozyme variant] | 1.33 | 1.14 | 1.53 | 1.64 | 1.15 | 1.82
AUGUUUGCUAAGAGUCGCAAG [Fam3.1 aminoacylation ribozyme variant] | 1.28 | 1.39 | 1.35 | 1.35 | 1.68 | 2.16
AUGUUUGCUAAUAGUCGCAAC [Fam3.1 aminoacylation ribozyme variant] | 1.05 | 1.04 | 1.15 | 1.05 | 1.08 | 1.82
AUGUUUGCUAAUAGUCGCGAG [Fam3.1 aminoacylation ribozyme variant] | 1.65 | 1.48 | 1.65 | 1.57 | 2.18 | 3.75
AUGUUUGCUAAUCGUCGCAAG [Fam3.1 aminoacylation ribozyme variant] | 1.44 | 1.32 | 1.32 | 1.13 | 1.01 | 1.59
AUGUUUGCUAAUUGUCGCAAG [Fam3.1 aminoacylation ribozyme variant] | 1.17 | 1.64 | 1.38 | 1.41 | 2.13 | 1.81
AUGUUUGCUAGUAGUCGCAAG [Fam3.1 aminoacylation ribozyme variant] | 0.827 | 0.911 | 0.957 | 1.15 | 0.975 | 1.15
AUUAAACUAGGUCAUCGGGUG [Fam2.2 aminoacylation ribozyme variant] | 3.11 | 5.02 | 2.89 | 3.79 | 4.43 | 23
AUUAACCCGGUCAUCGAGUGA [Fam2.1 aminoacylation ribozyme variant] | 4.15 | 7.87 | 3.71 | 7.21 | 9.1 | 54.5
AUUAACCGGGUCAUCGAGUGA [Fam2.1 aminoacylation ribozyme variant] | 3.29 | 7.07 | 3.38 | 6.03 | 7.04 | 36
AUUAACCUAGGUCAUCGAGUG [Fam2.2 aminoacylation ribozyme variant] | 5.78 | 11.7 | 7.02 | 8.83 | 4.39 | 17.9
